Consider three molecules from publication PMC5426458, “A practical strategy to design and develop an isoform-specific fluorescent probe for a target enzyme: CYP1A1 as a case study” (Chemical Science, 2016).

One data set has as its target T1, CYP1A1 (Homo sapiens, UniProt P04798).
T1 construct: endogenous CYP1A1 in human tissue microsomes, A549 and SKOV3 cells
T1 sequence (P04798 1-512): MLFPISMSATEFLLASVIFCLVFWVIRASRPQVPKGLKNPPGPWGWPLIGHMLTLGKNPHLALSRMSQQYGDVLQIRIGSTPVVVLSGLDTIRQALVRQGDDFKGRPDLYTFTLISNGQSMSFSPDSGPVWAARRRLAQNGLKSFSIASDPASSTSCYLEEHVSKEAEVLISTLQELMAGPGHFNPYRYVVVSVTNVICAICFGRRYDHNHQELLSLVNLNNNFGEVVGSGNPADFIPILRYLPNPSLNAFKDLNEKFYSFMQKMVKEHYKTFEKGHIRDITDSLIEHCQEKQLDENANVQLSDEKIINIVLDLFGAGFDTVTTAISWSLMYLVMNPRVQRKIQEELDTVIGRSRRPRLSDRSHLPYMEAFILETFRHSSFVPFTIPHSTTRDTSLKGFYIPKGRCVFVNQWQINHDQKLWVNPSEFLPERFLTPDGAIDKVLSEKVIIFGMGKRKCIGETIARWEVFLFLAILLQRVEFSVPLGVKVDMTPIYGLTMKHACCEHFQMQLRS
The data set can be described thus: inhibition of NBCeN-O-dechloroethylation in human tissue preparations and living cells ([…] in cells). It is filed as cell-based.

Substrate in the data set “purified protein”: CCCCN1C(=O)c2cccc3c(OCCCl)ccc(c23)C1=O
The data set is described as follows: purified protein. In kind it is biochemical, Homo sapiens. Conditions: heme.

Turning to `Oc1ccc(/C=C/c2cc(O)cc(O)c2)cc1` [resveratrol], the “inhibition of NBCeN-O-dechloroethylation in human tissue preparations and living” value against CYP1A1 is “formation of NBHN could be potently inhibited by ABT (a broad CYP inhibitor) and resveratrol (a selective inhibitor of CYP1A1)”.

B1: CYP1A1 (Homo sapiens) (protein)
chain: MLFPISMSATEFLLASVIFCLVFWVIRASRPQVPKGLKNPPGPWGWPLIGHMLTLGKNPHLALSRMSQQYGDVLQIRIGSTPVVVLSGLDTIRQALVRQGDDFKGRPDLYTFTLISNGQSMSFSPDSGPVWAARRRLAQNGLKSFSIASDPASSTSCYLEEHVSKEAEVLISTLQELMAGPGHFNPYRYVVVSVTNVICAICFGRRYDHNHQELLSLVNLNNNFGEVVGSGNPADFIPILRYLPNPSLNAFKDLNEKFYSFMQKMVKEHYKTFEKGHIRDITDSLIEHCQEKQLDENANVQLSDEKIINIVLDLFGAGFDTVTTAISWSLMYLVMNPRVQRKIQEELDTVIGRSRRPRLSDRSHLPYMEAFILETFRHSSFVPFTIPHSTTRDTSLKGFYIPKGRCVFVNQWQINHDQKLWVNPSEFLPERFLTPDGAIDKVLSEKVIIFGMGKRKCIGETIARWEVFLFLAILLQRVEFSVPLGVKVDMTPIYGLTMKHACCEHFQMQLRS
notes: recombinant CYP1A1
For B1, the Km in “purified protein” (NADPH active site, O-chloroethyl group cleaved, docking suggests pi-pi stacking with Phe-224) worked out at 0.84 µM.

B2: CYP1A2 (Homo sapiens) (protein)
chain: ALSQSVPFSATELLLASAIFCLVFWVLKGLRPRVPKGLKSPPEPWGWPLLGHVLTLGKNPHLALSRMSQRYGDVLQIRIGSTPVLVLSRLDTIRQALVRQGDDFKGRPDLYTSTLITDGQSLTFSTDSGPVWAARRRLAQNALNTFSIASDPASSSSCYLEEHVSKEAKALISRLQELMAGPGHFDPYNQVVVSVANVIGAMCFGQHFPESSDEMLSLVKNTHEFVETASSGNPLDFFPILRYLPNPALQRFKAFNQRFLWFLQKTVQEHYQDFDKNSVRDITGALFKHSKKGPRASGNLIPQEKIVNLVNDIFGAGFDTVTTAISWSLMYLVTKPEIQRKIQKELDTVIGRERRPRLSDRPQLPYLEAFILETFRHSSFLPFTIPHSTTRDTTLNGFYIPKKCCVFVNQWQVNHDPELWEDPSEFRPERFLTADGTAINKPLSEKMMLFGMGKRRCIGEVLAKWEIFLFLAILLQQLEFSVPPGVKVDLTPIYGLTMKHARCEHVQARLRFSIN
notes: recombinant CYP1A2
For the molecule B2, the Km in “purified protein” (NADPH) turned out to be 0.81 µM.
